Assay [1] concerns the target Rabbit skeletal muscle actin (RMA), as filaments (rabbit) (UniProt P68135).
Assay [2] addresses GST-549-SNAP-N-IQGAP1 (GST-SNAP-N-IQGAP1-6His, 1-522) (UniProt P46940). Description: single-molecule step photobleaching.
Assay [3] addresses Rabbit skeletal muscle actin (RMA), as filaments (rabbit) (UniProt P68135). The assay can be described thus: single-molecule microfluidics-assisted TIRF microscopy.

As for “6His-N-IQGAP1 (1-522) (from UniProt P46940 1-522) (domain or fragment)”, the barbed end depolymerization rate in mf-TIRF: IC50 of N-IQGAP1 in assay [1] is 0.3 nM.
One may read the stoichiometry N as the number of molecules, sites or subunits per partner or assembly. By koff is commonly meant a measure of how fast the partners let go of each other. A higher koff goes with fast dissociation. As to “GST-549-SNAP-N-IQGAP1 (GST-SNAP-N-IQGAP1-6His, 1-522) (from UniProt P46940 1-522) (domain or fragment)”, the stoichiometry N in assay [2] came out at 2. In assay [3], this substance registered an average dwell time on filament sides of 6.8 min and a koff of 0.0025 s⁻¹.
